Measurements from article PMC7036143 (Molecular cell, 2020).
Values joined by “and” are separate entries in the source; they are usually repeats but may differ in a detail not shown here. Equal entries are not always repeated. Where two headings read alike, the source gives them in different places.

B2: E. coli MS115-1 Trip13 E159Q (purified) (enzyme)
chain: MNVKPSLDELFERRINFPDFEPQERLARLVGLDEHKDRLSKILGLLVNPYGIQEWAKKYHPDARAAVDTVLRRPPLVVLAGDVGSGKTELAETIGDAVARQEDIDITLYPLSLATRGQGRVGEMTQLVSAAFDYTIEAADKLKNTNGKARGAVLLLIDQADALAQSRENAQMHHEDRAGVNAFIRGIDRIANQKLPAAVLMCTNRLKALDPAVQRRAAEILTFSRPNDEQRHYLLHSKLTGLGLNSTAVEELVRLTGPRDPNSPGFTFSDITQRLIPSIILAAYPYNAVSVHSALQVVNKMTPTPAFIDRQ
B4: P. aeruginosa ATCC27853 HORMA2 (purified in complexes) (natural protein)
chain: MSTVATYSYTHSVTYVTDNILKSLKDIILLSGLDPEHFADRWESNTRAIKTWLGTGDLRKVILEIYNPATDKLVTRWDIDIVYGWSDGDGSFWTDTEQLKYAIKKAGLLPSQAKYKLMLDTKPGRPDVEGWSKGSYRSTDGMVKQSLGSTVEHSGLAGQAGYWRQR

How the values were obtained:
[1] = target: E. coli MS115-1 CdnC (purified, in complexes with HORMA) (E. coli MS115-1) (UniProt D7Y2H2); assay: SEC
[2] = target: E. coli MS115-1 CdnC (purified, in complexes with HORMA) (E. coli MS115-1) (UniProt D7Y2H2); assay: SEC; remark: listed apart in the source
[3] = target: T1, Ec CdnC:HORMA-ΔN (crystal) (Escherichia coli, UniProt D7Y2H2); assay: crystal structure; assay type: binding; conditions: active site; copies contain either no ligand or AMP; co-purified
T1 sequence (D7Y2H2 1-321): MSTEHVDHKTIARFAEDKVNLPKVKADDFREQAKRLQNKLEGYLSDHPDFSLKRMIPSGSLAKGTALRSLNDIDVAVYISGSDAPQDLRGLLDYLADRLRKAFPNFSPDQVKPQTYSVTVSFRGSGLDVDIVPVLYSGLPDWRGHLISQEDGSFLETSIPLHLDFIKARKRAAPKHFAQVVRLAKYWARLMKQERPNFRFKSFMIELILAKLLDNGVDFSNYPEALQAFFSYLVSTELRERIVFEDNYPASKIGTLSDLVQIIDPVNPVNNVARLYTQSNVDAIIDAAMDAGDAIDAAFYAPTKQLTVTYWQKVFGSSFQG
T1 sequence (D7Y2H3 12-172 partner): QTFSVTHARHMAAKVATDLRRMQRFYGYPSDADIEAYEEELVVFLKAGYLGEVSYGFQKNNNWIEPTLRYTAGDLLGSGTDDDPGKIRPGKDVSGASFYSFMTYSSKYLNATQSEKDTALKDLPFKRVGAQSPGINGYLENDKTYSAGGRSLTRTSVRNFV

[4] = target: Rhizobiales sp. Trip13 (Rhizobiales sp.); assay: crystal structure
[5] = target: E. coli MS115-1 CdnC (purified, in complexes with HORMA) (E. coli MS115-1) (UniProt D7Y2H2); assay: crystal structure
Ec CdnC:HORMA:Trip13^EQ = target: T2, Ec CdnC:HORMA:Trip13^EQ (Escherichia coli, UniProt D7Y2H4, E159Q); assay: crystal structure, […] Å; assay type: binding; conditions: four of six Trip13 subunits (A-D); 1 mM ATP, 5 mM MgCl2
T2 sequence (D7Y2H4 1-311 E159Q): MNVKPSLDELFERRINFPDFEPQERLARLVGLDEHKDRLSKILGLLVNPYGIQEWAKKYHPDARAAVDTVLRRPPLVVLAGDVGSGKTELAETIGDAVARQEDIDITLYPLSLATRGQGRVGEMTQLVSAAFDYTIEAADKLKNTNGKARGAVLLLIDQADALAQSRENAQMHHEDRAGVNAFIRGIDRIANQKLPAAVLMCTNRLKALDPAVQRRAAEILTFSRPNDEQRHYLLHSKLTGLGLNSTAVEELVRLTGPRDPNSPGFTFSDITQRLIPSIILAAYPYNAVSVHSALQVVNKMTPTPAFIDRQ
T2 sequence (D7Y2H2 1-321 partner): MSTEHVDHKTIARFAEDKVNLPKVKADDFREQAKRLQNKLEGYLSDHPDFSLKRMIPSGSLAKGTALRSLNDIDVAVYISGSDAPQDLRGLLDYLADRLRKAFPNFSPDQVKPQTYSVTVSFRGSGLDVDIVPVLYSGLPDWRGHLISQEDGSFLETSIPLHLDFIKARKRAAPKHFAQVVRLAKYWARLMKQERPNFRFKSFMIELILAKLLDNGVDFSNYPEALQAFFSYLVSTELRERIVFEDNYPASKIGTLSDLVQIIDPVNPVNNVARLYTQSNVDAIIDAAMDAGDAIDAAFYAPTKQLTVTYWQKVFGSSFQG
T2 sequence (D7Y2H3 1-172 partner): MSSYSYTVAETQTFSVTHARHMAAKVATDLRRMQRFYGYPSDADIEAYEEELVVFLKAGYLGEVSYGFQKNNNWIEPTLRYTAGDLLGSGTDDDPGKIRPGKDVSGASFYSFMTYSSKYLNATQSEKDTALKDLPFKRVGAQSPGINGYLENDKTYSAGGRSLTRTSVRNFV

Ec CdnC = target: T3, Ec CdnC (Escherichia coli, UniProt D7Y2H2); assay: crystal structure, […] Å; assay type: binding; conditions: Mg2+; active site; ATP co-purified from E. coli
T3 sequence (D7Y2H2 1-321): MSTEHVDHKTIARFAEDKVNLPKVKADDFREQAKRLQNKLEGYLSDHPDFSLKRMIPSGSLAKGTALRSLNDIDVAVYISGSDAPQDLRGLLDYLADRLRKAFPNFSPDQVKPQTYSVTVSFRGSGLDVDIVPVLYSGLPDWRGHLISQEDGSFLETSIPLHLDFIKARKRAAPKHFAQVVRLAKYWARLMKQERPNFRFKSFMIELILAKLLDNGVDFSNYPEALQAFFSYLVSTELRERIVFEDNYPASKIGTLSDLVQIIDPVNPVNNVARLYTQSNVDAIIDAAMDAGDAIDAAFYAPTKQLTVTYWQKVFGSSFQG

[6] = target: B2; assay: crystal structure
[7] = target: T4, E. coli MS115-1 CdnC (purified, in complexes with HORMA) (E. coli MS115-1, UniProt D7Y2H2 1-321); assay: SEC-MALS
T4 sequence (looked up): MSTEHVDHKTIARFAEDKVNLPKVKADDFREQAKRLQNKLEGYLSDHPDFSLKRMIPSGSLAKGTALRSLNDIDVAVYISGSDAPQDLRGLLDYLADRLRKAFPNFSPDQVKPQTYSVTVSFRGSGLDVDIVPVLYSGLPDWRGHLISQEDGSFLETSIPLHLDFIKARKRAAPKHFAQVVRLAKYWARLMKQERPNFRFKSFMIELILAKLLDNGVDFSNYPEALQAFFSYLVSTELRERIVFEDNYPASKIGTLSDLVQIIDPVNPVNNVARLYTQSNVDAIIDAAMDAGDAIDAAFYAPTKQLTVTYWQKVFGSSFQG

crystal structure [8] = target: the molecule itself; assay: crystal structure
[9] = target: T5, Ec HORMA:CdnC complex (co-expressed, purified, 1:1) (E. coli MS115-1, UniProt D7Y2H2 1-321; D7Y2H3 1-172); assay: SEC-MALS
T5 sequence (looked up) 1: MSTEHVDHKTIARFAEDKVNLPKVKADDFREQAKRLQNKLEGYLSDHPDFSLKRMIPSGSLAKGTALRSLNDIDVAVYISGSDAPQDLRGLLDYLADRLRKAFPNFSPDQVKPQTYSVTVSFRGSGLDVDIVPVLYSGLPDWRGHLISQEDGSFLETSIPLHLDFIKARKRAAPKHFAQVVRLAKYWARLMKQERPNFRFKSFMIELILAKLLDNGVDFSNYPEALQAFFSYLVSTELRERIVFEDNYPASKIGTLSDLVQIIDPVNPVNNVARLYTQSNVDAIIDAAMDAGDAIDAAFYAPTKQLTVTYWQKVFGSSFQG
T5 sequence (looked up) 2: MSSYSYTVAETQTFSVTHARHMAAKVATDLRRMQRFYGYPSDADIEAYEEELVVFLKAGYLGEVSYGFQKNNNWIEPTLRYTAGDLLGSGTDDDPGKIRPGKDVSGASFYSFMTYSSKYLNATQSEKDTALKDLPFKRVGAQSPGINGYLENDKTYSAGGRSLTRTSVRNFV

[10] = target: B4; assay: crystal structure
crystal structure [11] = target: the molecule itself; assay: crystal structure; remark: listed apart in the source
[12] = target: T6, P. aeruginosa ATCC27853 CdnD (purified) (P. aeruginosa ATCC27853, UniProt P0DTF7 1-300); assay: SEC-MALS
T6 sequence: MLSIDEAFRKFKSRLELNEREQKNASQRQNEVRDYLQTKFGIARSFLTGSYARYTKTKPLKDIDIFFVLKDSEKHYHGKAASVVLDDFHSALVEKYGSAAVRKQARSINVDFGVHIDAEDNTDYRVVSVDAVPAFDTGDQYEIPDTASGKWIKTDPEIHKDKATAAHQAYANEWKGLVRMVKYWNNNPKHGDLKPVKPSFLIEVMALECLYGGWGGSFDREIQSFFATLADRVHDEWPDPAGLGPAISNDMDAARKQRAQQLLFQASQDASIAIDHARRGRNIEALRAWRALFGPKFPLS

[13] = target: B4; assay: SEC-MALS
Pa CdnD = target: T7, Pa CdnD (Pseudomonas aeruginosa ATCC27853, UniProt P0DTF7 1-300); assay: filter binding
T7 sequence: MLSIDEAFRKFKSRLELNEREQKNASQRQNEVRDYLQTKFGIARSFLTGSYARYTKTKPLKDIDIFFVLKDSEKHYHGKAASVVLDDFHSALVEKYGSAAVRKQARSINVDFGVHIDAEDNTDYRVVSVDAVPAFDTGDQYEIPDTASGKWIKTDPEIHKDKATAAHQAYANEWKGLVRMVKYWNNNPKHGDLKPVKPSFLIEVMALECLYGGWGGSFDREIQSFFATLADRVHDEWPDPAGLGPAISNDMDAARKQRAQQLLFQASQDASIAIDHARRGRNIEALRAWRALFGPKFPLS

Molecule: Ec HORMA-ΔN with the His6-tag removed (from UniProt D7Y2H3 12-172) (domain or fragment)
- stoichiometry N (HORMA-ΔN per CdnC) [1]: 1
- stoichiometry N (HORMA-ΔN per CdnC) [2]: 1

Molecule: Nc1ncnc2c1ncn2[C@@H]1O[C@H](COP(=O)(O)O)[C@@H](O)[C@H]1O [AMP]
- crystal structure [3]: contain either no ligand or AMP in the active site

Molecule: Rhizobiales sp. Trip13 (enzyme)
- stoichiometry N [4]: 6

Molecule: Ec HORMA-ΔN with N-terminal His6-tag (from UniProt D7Y2H3 12-172) (domain or fragment)
- stoichiometry N (HORMA-ΔN per CdnC (2:2 complex)) [5]: 1

Molecule: Nc1ncnc2c1ncn2[C@@H]1O[C@H](COP(=O)(O)OP(=O)(O)OP(=O)(O)O)[C@@H](O)[C@H]1O [ATP]
- crystal structure, 2.64 Å (Ec CdnC:HORMA:Trip13^EQ): with four subunits (monomers A-D) bound to ATP
- crystal structure, 1.44 Å (Ec CdnC): the active site is occupied by one molecule of ATP that was co-purified

B1: E. coli MS115-1 HORMA with N-terminal His6-tag (purified) (natural protein, UniProt D7Y2H3 1-172, looked up)
chain: MSSYSYTVAETQTFSVTHARHMAAKVATDLRRMQRFYGYPSDADIEAYEEELVVFLKAGYLGEVSYGFQKNNNWIEPTLRYTAGDLLGSGTDDDPGKIRPGKDVSGASFYSFMTYSSKYLNATQSEKDTALKDLPFKRVGAQSPGINGYLENDKTYSAGGRSLTRTSVRNFV
- binding result [6]: binds
- stoichiometry N [7]: 1 HORMA per CdnC (1:1 complex) and 1 HORMA per CdnC (2:2 complex)

Molecule: B2
- stoichiometry N (crystal structure [8]): 6
- stoichiometry N [9]: 6 Trip13^EQ per 1 CdnC:1 HORMA

Molecule: EVMEFNP [Peptide 1 (EVMEFNP), tag cleaved]
- binding result [10]: binds

B3: P. aeruginosa ATCC27853 HORMA2 (purified alone, crystallised) (natural protein, UniProt P0DTF6 1-166, looked up)
chain: MSTVATYSYTHSVTYVTDNILKSLKDIILLSGLDPEHFADRWESNTRAIKTWLGTGDLRKVILEIYNPATDKLVTRWDIDIVYGWSDGDGSFWTDTEQLKYAIKKAGLLPSQAKYKLMLDTKPGRPDVEGWSKGSYRSTDGMVKQSLGSTVEHSGLAGQAGYWRQR
- binding result (crystal structure [11]): binds

Molecule: B4
- stoichiometry N [12]: 1 HORMA2 per CdnD

B5: P. aeruginosa ATCC27853 HORMA3 (purified, in vitro reconstitution) (natural protein)
chain: MTTVVSRTFRSSPHRDALQTWDAIVELLTQGKDGTARSELRAVTGVAASLIADQAPKSAPIVATCDGPRTRIYCLFDEDAIDGDDANEEVLGFEPLKGDWGVSLPCPKEQLGWVQSALKKHSSRIIARDLSQGIATQAQADAGQALSLDLGGFLKS
- stoichiometry N [12]: 1 HORMA3 per CdnD
- stoichiometry N [13]: 1 HORMA3 per HORMA2

B6: 40 bp dsDNA (5'-FAM Oligo #1/Oligo #2) (dsDNA)
DNA 1: CCTTTCGAAGACTCATCACGGAGAGCAGACATCATCTGGC
DNA 2: GCCAGATGATGTCTGCTCTCCGTGATGAGTCTTCGAAAGG
- binding result (Pa CdnD): no binding
